B1: ICOSL variant N52D ECD-Fc fusion (Fc fusion)
chain: DTQEKEVRAMVGSDVELSCACPEGSRFDLNDVYVYWQTSESKTVVTYHIPQDSSLENVDSRYRNRALMSPAGMLRGDFSLRLFNVTPQDEQKFHCLVLSQSLGFQEVLSVEVTLHVAANFSVPVVSAPHSPSQDELTFTCTSINGYPRPNVYWINKTDNSLLDQALQNDTVFLNMRGLYDVVSVLRIARTPSVNIGCCIENVLLQQNLTVGSQTGNDIGERDKITENPVSTGEKNAAT
notes: not shown: no entry of the listing is held
B2: ICOSL variant N52S/Y146C/Y152C ECD-Fc fusion (Fc fusion, not shown: a dimerising Fc or GST; small tags and cut ends)
chain: DTQEKEVRAMVGSDVELSCACPEGSRFDLNDVYVYWQTSESKTVVTYHIPQSSSLENVDSRYRNRALMSPAGMLRGDFSLRLFNVTPQDEQKFHCLVLSQSLGFQEVLSVEVTLHVAANFSVPVVSAPHSPSQDELTFTCTSINGCPRPNVCWINKTDNSLLDQALQNDTVFLNMRGLYDVVSVLRIARTPSVNIGCCIENVLLQQNLTVGSQTGNDIGERDKITENPVSTGEKNAAT
B3: ICOSL variant N52S/S130G/Y152C ECD-Fc fusion (Fc fusion)
chain: DTQEKEVRAMVGSDVELSCACPEGSRFDLNDVYVYWQTSESKTVVTYHIPQSSSLENVDSRYRNRALMSPAGMLRGDFSLRLFNVTPQDEQKFHCLVLSQSLGFQEVLSVEVTLHVAANFSVPVVSAPHGPSQDELTFTCTSINGYPRPNVCWINKTDNSLLDQALQNDTVFLNMRGLYDVVSVLRIARTPSVNIGCCIENVLLQQNLTVGSQTGNDIGERDKITENPVSTGEKNAAT
notes: not shown: The AAA linker to it is left out
B4: ICOSL variant N52H/N57Y/Q100P ECD-Fc fusion (Fc fusion)
chain: DTQEKEVRAMVGSDVELSCACPEGSRFDLNDVYVYWQTSESKTVVTYHIPQHSSLEYVDSRYRNRALMSPAGMLRGDFSLRLFNVTPQDEQKFHCLVLSPSLGFQEVLSVEVTLHVAANFSVPVVSAPHSPSQDELTFTCTSINGYPRPNVYWINKTDNSLLDQALQNDTVFLNMRGLYDVVSVLRIARTPSVNIGCCIENVLLQQNLTVGSQTGNDIGERDKITENPVSTGEKNAAT
notes: as for B1
B5: ICOSL variant F120S/Y152H/N201S ECD-Fc fusion (Fc fusion)
chain: DTQEKEVRAMVGSDVELSCACPEGSRFDLNDVYVYWQTSESKTVVTYHIPQNSSLENVDSRYRNRALMSPAGMLRGDFSLRLFNVTPQDEQKFHCLVLSQSLGFQEVLSVEVTLHVAANSSVPVVSAPHSPSQDELTFTCTSINGYPRPNVHWINKTDNSLLDQALQNDTVFLNMRGLYDVVSVLRIARTPSVNIGCCIESVLLQQNLTVGSQTGNDIGERDKITENPVSTGEKNAAT
notes: not shown: C220S/R292C/N297G/V302C) and the AAA linker to it
B6: variant PD-L2 IgV-Fc V89D (Fc fusion, not shown: a dimerising Fc or GST; small tags and cut ends)
chain: LFTVTVPKELYIIEHGSNVTLECNFDTGSHVNLGAITASLQKVENDTSPHRERATLLEEQLPLGKASFHIPQVQVRDEGQYQCIIIYGDAWDYKYLTLK

The first assay deals with human ICOS as used for the 'ICOS OD' read-out of Table 14 (human). The experiment in a line: binding read as OD; format not described.
Chain of human ICOS as used for the 'ICOS OD' read-out of Table 14 (human) (Q9Y6W8 whole entry, the tested form may be a part): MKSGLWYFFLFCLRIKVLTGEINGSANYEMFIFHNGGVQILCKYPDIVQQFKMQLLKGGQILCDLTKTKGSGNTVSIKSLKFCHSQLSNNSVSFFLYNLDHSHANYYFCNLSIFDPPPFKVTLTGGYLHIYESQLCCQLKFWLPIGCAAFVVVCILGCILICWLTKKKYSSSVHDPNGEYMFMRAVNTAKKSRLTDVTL
On to B1, for which the “ICOS OD” value turned out to be 1.59 OD and the “ICOS OD parental ratio” value was 1.85 ratio to WT ICOSL ECD-Fc. As for B2, the “ICOS OD” value was 1.26 OD and the “ICOS OD parental ratio” value is 1.47 ratio to WT ICOSL ECD-Fc. In the same order, the values of B3 are 0.16 OD and 0.19 ratio to WT ICOSL ECD-Fc.

On to B4, for which the “ICOS OD” value came out at 1.57 OD and the “ICOS OD parental ratio” value is 1.83 ratio to WT ICOSL ECD-Fc. As to B5, the “ICOS OD” value came to 0.63 OD and the “ICOS OD parental ratio” value is 0.73 ratio to WT ICOSL ECD-Fc.

For another assay, the target named is PD-1-Fc. The experiment in a line: Fortebio (BLI), PD-1-Fc.
As for B6, the “Fortebio binding to PD-1-Fc Response Units” value turned out to be 0.005 Response Units.

For the origin of these results see US20200040059A1 (ALPINE IMMUNE SCIENCES, published 2020).
